We go through one molecule from patent US20230203202A1 (DRAGONFLY THERAPEUTICS, published 2023).

In assay [1] the target is T1, human 5T4 on the cell surface (human, UniProt Q13641 32-420).
T1 sequence (looked up): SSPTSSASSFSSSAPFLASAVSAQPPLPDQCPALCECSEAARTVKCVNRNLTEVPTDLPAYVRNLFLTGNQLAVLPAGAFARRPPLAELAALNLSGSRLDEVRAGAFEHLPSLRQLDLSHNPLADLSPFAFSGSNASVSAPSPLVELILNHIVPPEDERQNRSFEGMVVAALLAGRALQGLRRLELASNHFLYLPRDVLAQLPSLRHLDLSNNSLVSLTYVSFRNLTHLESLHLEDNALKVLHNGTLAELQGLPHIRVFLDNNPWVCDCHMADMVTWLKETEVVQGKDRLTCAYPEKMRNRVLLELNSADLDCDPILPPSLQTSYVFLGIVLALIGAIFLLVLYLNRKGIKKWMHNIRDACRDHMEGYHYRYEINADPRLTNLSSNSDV
The experiment in a line: cell-based or functional assay.

Assay [2] has as its target T1, human 5T4 on the cell surface. The experiment in a line: flow cytometry on BT474 cells (20,000 5T4 per cell). In general terms: Flow cytometry measures light scatter and fluorescence of single cells or particles in a stream.
The target in assay [3] is T2, human 5T4 (SPR and epitope mapping, construct not stated) (human, UniProt Q13641 32-355, limits assumed).
T2 construct: also called h5T4
T2 sequence (looked up): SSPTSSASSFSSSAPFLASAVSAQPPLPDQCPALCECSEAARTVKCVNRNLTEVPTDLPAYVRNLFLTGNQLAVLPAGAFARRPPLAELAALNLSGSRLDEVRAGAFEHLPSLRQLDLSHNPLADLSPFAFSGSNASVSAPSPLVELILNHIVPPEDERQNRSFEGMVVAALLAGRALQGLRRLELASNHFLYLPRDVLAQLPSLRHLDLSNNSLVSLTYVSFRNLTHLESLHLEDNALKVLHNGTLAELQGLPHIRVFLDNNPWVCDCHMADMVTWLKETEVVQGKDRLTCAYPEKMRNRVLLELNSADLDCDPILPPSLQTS
Description: SPR, kinetics fit. On the technique in general: Surface plasmon resonance follows binding to a sensor surface in real time, without labels.

For assay [4], the target named is T3, Human CD16aV (human, UniProt P08637 17-208).
T3 construct: position 158 counts on the mature protein
T3 sequence (P08637 17-208 F176V): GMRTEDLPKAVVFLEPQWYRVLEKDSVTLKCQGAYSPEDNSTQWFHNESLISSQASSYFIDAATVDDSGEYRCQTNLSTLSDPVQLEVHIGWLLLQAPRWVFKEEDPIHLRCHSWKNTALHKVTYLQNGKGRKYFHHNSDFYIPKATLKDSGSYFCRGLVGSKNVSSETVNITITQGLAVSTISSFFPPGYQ
The experiment in a line: SPR, kinetics fit.

Assay [5] concerns the target T4, human NKG2D (recombinant, construct not stated) (human, UniProt P26718 78-216, limits assumed).
T4 construct: also called hNKG2D
T4 sequence (looked up): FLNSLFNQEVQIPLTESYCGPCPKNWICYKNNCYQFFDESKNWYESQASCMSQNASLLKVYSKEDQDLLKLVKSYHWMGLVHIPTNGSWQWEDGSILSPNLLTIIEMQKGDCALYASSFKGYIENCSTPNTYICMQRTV
The experiment in a line: SPR, kinetics fit.

B1: AB1310/AB1783-TriNKET® (bispecific antibody, human IgG1, kappa)
chain: DIQLTQSPSSLSASVGDRVTITCRASQSVTTSNYNYMHWFQQKPGKAPKLLIKFASNLESGVPSRFSGSGSGTDFTLTISSLQPEDFATYYCQHSWEIPWTFGCGTKVEIKGGGGSGGGGSGGGGSGGGGSEVQLVESGGGLVKPGGSLRLSCAASRFTFSDFGMHWVRQAPGKCLEWVSYISSGSSTIYYADSVKGRFTISRDNAKNSLYLQMNSLRAEDTAVYYCASSQSYYRGTLDYWGQGTTVTVSSASDKTHTCPPCPAPELLGGPSVFLFPPKPKDTLMISRTPEVTCVVVDVSHEDPEVKFNWYVDGVEVHNAKTKPREEQYNSTYRVVSVLTVLHQDWLNGKEYKCKVSNKALPAPIEKTISKAKGQPREPRVYTLPPCRDELTKNQVSLTCLVKGFYPSDIAVEWESNGQPENNYKTTPPVLVSDGSFTLYSKLTVDKSRWQQGNVFSCSVMHEALHNHYTQKSLSLSPG
heavy: EVQLVESGGGLVKPGGSLRLSCAASGFTFSSYSMNWVRQAPGKGLEWVSSISSSSSYIYYADSVKGRFTISRDNAKNSLYLQMNSLRAEDTAVYYCARGAPIGAAAGWFDPWGQGTLVTVSSASTKGPSVFPLAPSSKSTSGGTAALGCLVKDYFPEPVTVSWNSGALTSGVHTFPAVLQSSGLYSLSSVVTVPSSSLGTQTYICNVNHKPSNTKVDKKVEPKSCDKTHTCPPCPAPELLGGPSVFLFPPKPKDTLMISRTPEVTCVVVDVSHEDPEVKFNWYVDGVEVHNAKTKPREEQYNSTYRVVSVLTVLHQDWLNGKEYKCKVSNKALPAPIEKTISKAKGQPREPQVCTLPPSRDELTENQVSLTCLVKGFYPSDIAVEWESNGQPENNYKTTPPVLDSDGSFFLYSWLTVDKSRWQQGNVFSCSVMHEALHNHYTQKSLSLSPG
light: DIQMTQSPSSVSASVGDRVTITCRASQGISSWLAWYQQKPGKAPKLLIYAASSLQSGVPSRFSGSGSGTDFTLTISSLQPEDFATYYCQQGVSFPRTFGGGTKVEIKRTVAAPSVFIFPPSDEQLKSGTASVVCLLNNFYPREAKVQWKVDNALQSGNSQESVTEQDSKDSTYSLSSTLTLSKADYEKHKVYACEVTHQGLSSPVTKSFNRGEC
notes: also called AB1310-TriNKET®; AB1783 10F10 F3′ LH H(T62S) CHO opt
As to B1, in assay [1], the “cynomolgus monkey NK cell activation in co-culture with H292 cells, EC50” value was 0.06 nM; the “cynomolgus monkey NK cell activation in co-culture with KYSE-30 cells, EC50” value amounted to 0.06 nM; the “human NK cell activation in co-culture with H292 cells, EC50” value is 0.35 nM; the “human NK cell activation in co-culture with KYSE-30 cells, EC50” value is 0.13 nM. In addition, the EC50 (as a rule, the concentration needed to bring the measured effect to its halfway point) in assay [2] was determined as 3.7 nM. In addition, in assay [3], the equilibrium dissociation constant (Kd) (in general, the equilibrium constant for the complex coming apart) amounted to 6.1 nM; the koff (in general, the first-order rate constant of dissociation) amounted to 0.00077 s⁻¹; the kon (in general, a measure of how fast the partners come together) came to 130000 M⁻¹ s⁻¹. In assay [4], this molecule showed a Kd of 112 nM, a koff of 0.017 s⁻¹ and a kon of 150000 M⁻¹ s⁻¹. Moreover, in assay [5], the Kd was determined as 370 nM, the koff turned out to be 0.088 s⁻¹ and the kon is 240000 M⁻¹ s⁻¹.
